Data as given in patent publication US20030162275A1, “Dog flavin-containing monooxygenase” (priority 2002, published 2003).
Substitutions are numbered along the chain they refer to.

B1: SEQ ID NO: 2: Amino acid sequence of a variant of dog wild-type FMO1 (protein, listed as Canis familiaris)
chain: MAKRVAIVGAGVSGLASIKCCLEEGLEPTCFERSDDLGGLWRFTEHVEGGRASLYKSVVSNSCKEMSCYSDFPFPEDYPNYVPNSQFLEYLKMYANRFSLLKCIRFKTKVCKVTKCPDFTVTGQWEVVTQHEGKQESAIFDAVMVCTGFLTNPHLPLDCFPGINTFKGQYFHSRQYKHPDIFKDKRVLVIGMGNSGTDIAVETSRLAKKVFLSTTGGAWVMSRVFDSGYPWDVVFMTRYQNMFRNSLSTPIVTWLMARKMNSWFNHANYGLVPEDRTQLREPVLNDELPGCIITGKVLIKPSIKEVKENSVVFNNTPKEEPIDIIVFATGYTFAFPFLDETVVKVENGQASLYKYIFPVHLPKPTLAVIGLIKPLGSMIPTGETQARWAVRVLKGINKLPPQSAMTEEVNARKENKPSGFGLCYCKALQSDYITYIDELLTNINAKPNLFSLPLTDPRLALTTFFGPCTPYQFRLTGPGKWKGARNAILTQWDRTFKVTKTRIVQESPTPFASLLKLLSLLALLMAIFQIFL
B2: SEQ ID NO: 6: Amino acid sequence of dog wild-type FMO1, expressed using a baculovirus expression system in insect cells (protein, listed as Canis familiaris)
chain: B1 chain with G49E, V233M, Y239F, S248P, P453L, T463I, Q529L
B3: SEQ ID NO: 4: Amino acid sequence of another variant of dog wild-type FMO1 (protein, listed as Canis familiaris)
chain: B1 chain with G49E, C159Y, F182L, V233M, Y239F, S248P, L422S, P453L, T463I

Experiment: Enzyme activity assay (MPT S-oxidase activity of expressed FMO1 polypeptides in Sf-9 cell microsomes)
Type: biochemical, dog
Settings: 25 ug Sf-9 cell microsomal protein, 1 mM NADPH, 0.1 M tricine, 37° C., 10 minutes, HPLC detection of MPT sulfoxide at 240 nm
Experimental: Examples of particular variants of polypeptides of the invention include polypeptide of SEQ ID NO: 2 and SEQ ID NO: 4. […] This enzyme assay represents a single known method for the detemination of enzyme activity of various FMOs. Briefly, the methyl-p-tolyl (MPT) S-oxidase activity of the expressed variants of the polypeptide was assayed as a measure of FMO function. […] Incubations included 25 ug of Sf-9 cell (containing the polypeptide) microsomal protein 1 mM NADPH, and 0.1 M tricine. Incubations were started by the addition of MPTS and were conducted at 37° C. for at least 10 minutes. Following termination of the incubation, the supernatant was analyzed by high performance liquid chromatography and the MPT sulfoxide product was detected by absorbance at 240 nm and quantitated using an authentic standard of the sulfoxide metabolite.
An achiral assay method was conducted according to the data sheets provided by Gentest, with some modifications. Based on preliminary determinations of the linearity of metabolite formation with protein concentration and incubation time, incubation conditions were established using 50 μg (tissue microsomes) or 25 μg (Sf-9 cell microsomes) protein, 1 mM NADPH, and 0.1 M tricine in a total volume of 0.25 ml. Samples were incubated for 3 min at 37° C. followed by the addition of substrate (in 1% methanol) to start the reaction. Incubations were terminated after 10 minutes by the addition of 50 μl of acetonitrile, and samples were centrifuged to precipitate protein. The supernatant was analyzed by HPLC, using a 4.6 ×250 mm 5 micron C18 analytical column (Luna™C18(2), Phenomenex, Torrance Calif.) and a 1 ml/min gradient elution of 40:60/methanol:water to 60:40/methanol/water over 8 minutes, followed by substrate elution with 95% methanol. The MPT sulfoxide product was detected by absorbance at 240 nm and quantitated using the authentic standard. Imipramine N-oxidation was measured by substrate-dependent oxidation of NADPH at 340 nm Wyatt et al., 1998, using 25-50 μg of microsomal protein in a total volume of 750 μl.

Row | Molecule | enzyme activity (MPT S-oxidase activity as a measure of FMO function)
1 | B1 | inactive
2 | B2 | active
3 | B3 | inactive
